Experimental data reported in patent publication US20260274985A1 (MYTHIC THERAPEUTICS, published 2026).

T1: Human TROP2 Protein, His Tag (Acro Biosystems) (human, UniProt P09758 27-274)
T1 construct: Bought protein; also called TACSTD2; not shown: His tag
T1 sequence: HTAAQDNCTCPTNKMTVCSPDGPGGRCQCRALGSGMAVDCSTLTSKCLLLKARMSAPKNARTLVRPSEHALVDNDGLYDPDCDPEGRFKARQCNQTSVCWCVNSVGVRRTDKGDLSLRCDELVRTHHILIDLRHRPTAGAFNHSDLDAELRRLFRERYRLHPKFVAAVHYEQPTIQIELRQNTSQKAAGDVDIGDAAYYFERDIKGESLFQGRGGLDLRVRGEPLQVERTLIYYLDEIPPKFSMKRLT

T2: Human TROP2 Protein, His Tag (Acro Biosystems) (human, UniProt P09758 27-274)
T2 construct: not shown: His tag
T2 sequence (looked up): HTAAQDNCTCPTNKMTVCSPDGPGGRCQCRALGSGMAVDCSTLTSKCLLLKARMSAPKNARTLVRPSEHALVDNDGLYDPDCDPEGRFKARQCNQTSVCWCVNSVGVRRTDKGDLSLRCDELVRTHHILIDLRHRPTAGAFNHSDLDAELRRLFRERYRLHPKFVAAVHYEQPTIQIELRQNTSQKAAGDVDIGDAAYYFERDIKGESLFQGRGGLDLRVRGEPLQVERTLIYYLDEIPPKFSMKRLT


What follows are binders tested against T1, Human TROP2 Protein, His Tag (Acro …) (assay: BLI (Octet), antibody on anti-human Fc sensor, human TROP2-His in solution; legend: 3=No binding).

binding result	Binder
no binding (tested: 50 nM)	MYT12456 (hu7E6SVG variant, LCV substitutions at 59, 60, 97) (antibody, V domains shown, Full IgG in Expi293 supernatant) VH: QVQLQESGPGLVKPSETLSLTCTVSGGSISSYGVHWIRQPPGKGLEWIGVIWTSGVTDYNSALMGRVTISVDTSKNQFSLKLSSVTAADTAVYYCARDGDYDRYTMDYWGQGTLVTVSS VL: DIVMTQSPDSLAVSLGERATINCRASKSVSTSGYSYMHWYQQKPGQPPKLLIYLASNLHHGVPDRFSGSGSGTDFTLTISSLQAEDVAVYYCQHSRHLPYTFGQGTKLEIK
no binding (tested: 50 nM)	MYT12465 (hu7E6SVG variant, LCV substitutions at 60, 93, 97) (antibody, V domains shown, Full IgG in Expi293 supernatant) VH: QVQLQESGPGLVKPSETLSLTCTVSGGSISSYGVHWIRQPPGKGLEWIGVIWTSGVTDYNSALMGRVTISVDTSKNQFSLKLSSVTAADTAVYYCARDGDYDRYTMDYWGQGTLVTVSS VL: DIVMTQSPDSLAVSLGERATINCRASKSVSTSGYSYMHWYQQKPGQPPKLLIYLASNLEHGVPDRFSGSGSGTDFTLTISSLQAEDVAVYYCHHSRHLPYTFGQGTKLEIK
no binding (tested: 50 nM)	MYT12461 (hu7E6SVG variant, LCV substitutions at 59, 94, 97 (Ala at 94)) (antibody, V domains shown, Full IgG in Expi293 supernatant) VH: QVQLQESGPGLVKPSETLSLTCTVSGGSISSYGVHWIRQPPGKGLEWIGVIWTSGVTDYNSALMGRVTISVDTSKNQFSLKLSSVTAADTAVYYCARDGDYDRYTMDYWGQGTLVTVSS VL: DIVMTQSPDSLAVSLGERATINCRASKSVSTSGYSYMHWYQQKPGQPPKLLIYLASNLHSGVPDRFSGSGSGTDFTLTISSLQAEDVAVYYCQASRHLPYTFGQGTKLEIK

Continued, binder first:

Binder	binding result
MYT12462 (hu7E6SVG variant, LCV substitutions at 59, 94, 101 (Ala at 94)) (antibody, V domains shown, Full IgG in Expi293 supernatant) VH: QVQLQESGPGLVKPSETLSLTCTVSGGSISSYGVHWIRQPPGKGLEWIGVIWTSGVTDYNSALMGRVTISVDTSKNQFSLKLSSVTAADTAVYYCARDGDYDRYTMDYWGQGTLVTVSS VL: DIVMTQSPDSLAVSLGERATINCRASKSVSTSGYSYMHWYQQKPGQPPKLLIYLASNLHSGVPDRFSGSGSGTDFTLTISSLQAEDVAVYYCQASRELPYHFGQGTKLEIK	no binding (tested: 50 nM)
MYT12460 (hu7E6SVG variant, LCV substitutions at 59, 93, 101) (antibody, V domains shown, Full IgG in Expi293 supernatant) VH: QVQLQESGPGLVKPSETLSLTCTVSGGSISSYGVHWIRQPPGKGLEWIGVIWTSGVTDYNSALMGRVTISVDTSKNQFSLKLSSVTAADTAVYYCARDGDYDRYTMDYWGQGTLVTVSS VL: DIVMTQSPDSLAVSLGERATINCRASKSVSTSGYSYMHWYQQKPGQPPKLLIYLASNLHSGVPDRFSGSGSGTDFTLTISSLQAEDVAVYYCHHSRELPYHFGQGTKLEIK	no binding (tested: 50 nM)
MYT12458 (hu7E6SVG variant, LCV substitutions at 59, 93, 94 (Ala at 94)) (antibody, V domains shown, Full IgG in Expi293 supernatant) VH: QVQLQESGPGLVKPSETLSLTCTVSGGSISSYGVHWIRQPPGKGLEWIGVIWTSGVTDYNSALMGRVTISVDTSKNQFSLKLSSVTAADTAVYYCARDGDYDRYTMDYWGQGTLVTVSS VL: DIVMTQSPDSLAVSLGERATINCRASKSVSTSGYSYMHWYQQKPGQPPKLLIYLASNLHSGVPDRFSGSGSGTDFTLTISSLQAEDVAVYYCHASRELPYTFGQGTKLEIK	no binding (tested: 50 nM)
MYT12464 (hu7E6SVG variant, LCV substitutions at 60, 93, 94 (Ala at 94)) (antibody, V domains shown, Full IgG in Expi293 supernatant) VH: QVQLQESGPGLVKPSETLSLTCTVSGGSISSYGVHWIRQPPGKGLEWIGVIWTSGVTDYNSALMGRVTISVDTSKNQFSLKLSSVTAADTAVYYCARDGDYDRYTMDYWGQGTLVTVSS VL: DIVMTQSPDSLAVSLGERATINCRASKSVSTSGYSYMHWYQQKPGQPPKLLIYLASNLEHGVPDRFSGSGSGTDFTLTISSLQAEDVAVYYCHASRELPYTFGQGTKLEIK	no binding (tested: 50 nM)
MYT12457 (hu7E6SVG variant, LCV substitutions at 59, 60, 101) (antibody, V domains shown, Full IgG in Expi293 supernatant) VH: QVQLQESGPGLVKPSETLSLTCTVSGGSISSYGVHWIRQPPGKGLEWIGVIWTSGVTDYNSALMGRVTISVDTSKNQFSLKLSSVTAADTAVYYCARDGDYDRYTMDYWGQGTLVTVSS VL: DIVMTQSPDSLAVSLGERATINCRASKSVSTSGYSYMHWYQQKPGQPPKLLIYLASNLHHGVPDRFSGSGSGTDFTLTISSLQAEDVAVYYCQHSRELPYHFGQGTKLEIK	no binding (tested: 50 nM)

What follows are binders tested against T2, Human TROP2 Protein, His Tag (Acro …) (assay: BLI (Octet) [2/2]).

binding result	Binder
binds	MYT12351 (antibody, V domains shown, sacituzumab VL 51, 92 -> H) VH: QVQLQQSGSELKKPGASVKVSCKASGYTFTNYGMNWVKQAPGQGLKWMGWINTYTGEPTYTDDFKGRFAFSLDTSVSTAYLQISSLKADDTAVYFCARGGFGSSYWYFDVWGQGSLVTVSS VL: DIQLTQSPSSLSASVGDRVSITCKASQDVSIAVAWYQQKPGKAPKLLIYSHSYRYTGVPDRFSGSGSGTDFTLTISSLQPEDFAVYYCQQHHITPLTFGAGTKVEIK
binds	MYT12353 (antibody, V domains shown, sacituzumab VL 52, 53 -> H) VH: QVQLQQSGSELKKPGASVKVSCKASGYTFTNYGMNWVKQAPGQGLKWMGWINTYTGEPTYTDDFKGRFAFSLDTSVSTAYLQISSLKADDTAVYFCARGGFGSSYWYFDVWGQGSLVTVSS VL: DIQLTQSPSSLSASVGDRVSITCKASQDVSIAVAWYQQKPGKAPKLLIYSAHHRYTGVPDRFSGSGSGTDFTLTISSLQPEDFAVYYCQQHYITPLTFGAGTKVEIK
binds	MYT12357 (antibody, V domains shown, sacituzumab VL 52, 93 -> H) VH: QVQLQQSGSELKKPGASVKVSCKASGYTFTNYGMNWVKQAPGQGLKWMGWINTYTGEPTYTDDFKGRFAFSLDTSVSTAYLQISSLKADDTAVYFCARGGFGSSYWYFDVWGQGSLVTVSS VL: DIQLTQSPSSLSASVGDRVSITCKASQDVSIAVAWYQQKPGKAPKLLIYSAHYRYTGVPDRFSGSGSGTDFTLTISSLQPEDFAVYYCQQHYHTPLTFGAGTKVEIK

Second part, the binder before the results:

Binder	binding result
MYT12364 (antibody, V domains shown, sacituzumab VL 89, 93 -> H) VH: QVQLQQSGSELKKPGASVKVSCKASGYTFTNYGMNWVKQAPGQGLKWMGWINTYTGEPTYTDDFKGRFAFSLDTSVSTAYLQISSLKADDTAVYFCARGGFGSSYWYFDVWGQGSLVTVSS VL: DIQLTQSPSSLSASVGDRVSITCKASQDVSIAVAWYQQKPGKAPKLLIYSASYRYTGVPDRFSGSGSGTDFTLTISSLQPEDFAVYYCHQHYHTPLTFGAGTKVEIK	binds
MYT12374 (antibody, V domains shown, sacituzumab VL 51, 53, 89 -> H) VH: QVQLQQSGSELKKPGASVKVSCKASGYTFTNYGMNWVKQAPGQGLKWMGWINTYTGEPTYTDDFKGRFAFSLDTSVSTAYLQISSLKADDTAVYFCARGGFGSSYWYFDVWGQGSLVTVSS VL: DIQLTQSPSSLSASVGDRVSITCKASQDVSIAVAWYQQKPGKAPKLLIYSHSHRYTGVPDRFSGSGSGTDFTLTISSLQPEDFAVYYCHQHYITPLTFGAGTKVEIK	binds
MYT12376 (antibody, V domains shown, sacituzumab VL 51, 89, 93 -> H) VH: QVQLQQSGSELKKPGASVKVSCKASGYTFTNYGMNWVKQAPGQGLKWMGWINTYTGEPTYTDDFKGRFAFSLDTSVSTAYLQISSLKADDTAVYFCARGGFGSSYWYFDVWGQGSLVTVSS VL: DIQLTQSPSSLSASVGDRVSITCKASQDVSIAVAWYQQKPGKAPKLLIYSHSYRYTGVPDRFSGSGSGTDFTLTISSLQPEDFAVYYCHQHYHTPLTFGAGTKVEIK	binds
MYT12352 (antibody, V domains shown, sacituzumab VL 51, 93 -> H) VH: QVQLQQSGSELKKPGASVKVSCKASGYTFTNYGMNWVKQAPGQGLKWMGWINTYTGEPTYTDDFKGRFAFSLDTSVSTAYLQISSLKADDTAVYFCARGGFGSSYWYFDVWGQGSLVTVSS VL: DIQLTQSPSSLSASVGDRVSITCKASQDVSIAVAWYQQKPGKAPKLLIYSHSYRYTGVPDRFSGSGSGTDFTLTISSLQPEDFAVYYCQQHYHTPLTFGAGTKVEIK	binds
